Data set [1] deals with FGFR. Conditions: Mohammadi et al. 1998; Grand et al. 2004; cited from earlier work.
Data set [2] in a line: Pharmacokinetic study of FGF23 in rats. The class given is in vivo, rat. How it is done:
High systemic levels of FGF23 results in left ventricular hypertrophy in mice. […] Therefore, we administered FGF23 intravenously to determine if systemically elevated FGF23 levels could also induce LVH. We injected 40 μg/kg of recombinant FGF23 dissolved in 200 μl of PBS into the tail vein of adult wild type mice twice daily for 5 days with eight hours between daily doses. The dose of FGF23 was chosen based on published reports in which a similar dose stimulated ERK phosphorylation and increased Egr-1 expression (Urakawa et al., Nature, 444(7120):770-774, […]). The frequency of injections was chosen based on a pharmacokinetic study of adult wild type rats in which we injected a single dose of 40 μg/kg of FGF23. […] Thus, we estimated that two daily injections of 40 μg/kg would provide elevated FGF23 levels for at least 8 hours per day in mice. Control animals underwent the same injection schedule using 200 μl of PBS alone. On the morning of day 6, blood was collected for assay of FGF23, mice were sacrificed and the hearts examined.

Data set [3] can be described thus: In vivo biological activity of FGF23 (serum phosphate). The following applies: Sprague-Dawley rats, single i.v. 40 μg/kg, over 4 hours. More on the design: species or system rat. From the text: We used recombinant mouse FGF23 (6His-tagged Tyr25-Val251 (Arg179Gln)), FGF2 (Ala11-Ser154), and FGF4 (Ala30-Leu202) proteins (R&D Systems). We chose the mutant form of FGF23 because it is resistant to furin protease-mediated degradation, which prolongs the protein's half-life.
We used recombinant mouse FGF23 (6His-tagged Tyr25-Val251 [Arg179Gln]; 26.1 kDa), and FGF2 (Ala11-Ser154; 16.2 kDa) (R&D Systems) as before (Faul et al., 2011).

Data set [4] deals with HEK293 cells. The data set can be described thus: FGF-FGFR-dependent signaling in HEK293 cells (Western blot, immunoprecipitation). In kind it is cell-based. The following applies: for phosphorylated PLCγ levels / phosphorylation of FRS2γ (FGF2: FRS2γ and ERK1/2): HEK293, untransfected, 30 minutes. How it is done:
HEK293 cells were grown in 6-well plates or 10 cm-culture dishes and transiently transfected with FuGene 6 (Roche) according to the manufacturer's protocol. After 36 hours, cells were serum-starved for 12-16 hours followed by treatment with FGF23 or FGF2 at 25 ng/ml for 15 or 30 minutes.
(§1) HEK293 cells, NRVM or NMVM were treated with growth factors for 30 minutes to analyze activation of signal transduction mediators, or for 48 hours to analyze expression levels of hypertrophic marker proteins. Cells were scraped from 6-well plates using 500 μl CHAPS extraction buffer (20 mM Tris-HCl pH7.5, 500 mM NaCl, 0.5% CHAPS, protease inhibitor cocktail (Roche), protein phosphatase inhibitors [Sigma-Aldrich]) and incubated on ice for 30 minutes. The cell lysate was centrifuged at 14,000 rpm and 4° C. for 30 minutes, and the supernatant boiled in sample buffer and analyzed by SDS-PAGE and immunoblotting. For protein extraction from mouse hearts, tissue was isolated, minced and homogenized in RIPA extraction buffer (50 mM Tris-HCl pH 7.5, 200 mM NaCl, 1% Triton X-100, 0.25% DOC, 1 mM EDTA, 1 mM EGTA, protease and phosphatase inhibitors) at 1:10 (w:v), and protein lysates were prepared as described above.
Antibodies to β-MHC (NOQ7.5.4D; Sigma-Aldrich; 1:1,000), RCAN1 (rabbit polyclonal, provided by Timothy McKinsey, University of Colorado, Denver, Colo. (Harrison et al., 2004); 1:1,000), FGFR4 (C-16; Santa Cruz; 1:1,000), total and phospho-ERK1/2 (Cell Signaling; 1:1,000), total and phospho-FRS2α (Santa Cruz 1:1,000; Cell Signaling; 1:1,000), total and phospho-PLCγ (Cell Signaling; 1:1,000), FLAG (M5, Sigma-Aldrich; 1:10,000), V5 (Sigma-Aldrich; 1:10,000) and GAPDH (Abcam; 1:10,000) were used as primary antibodies in 5% milk in TBST (RCAN1, FGFR4, FLAG, V5), 5% BSA in TBST (phospho-FRS2α) or 1.5% FBS in TBS (β-MHC, total and phospho-ERK1/2, total FRS2α, total and phospho-PLCγ, GAPDH) for 1-2 hours. Horseradish peroxidase-conjugated goat-anti-mouse and goat-anti-rabbit (Promega; 1:10,000) were secondary antibodies.
HEK293 cells in 10 cm-dishes were treated with growth factors for 30 minutes, cells were scraped using 1 ml IP buffer (50 mM Tris-HCl pH7.5, 150 mM NaCl, 5 mM MgCl2, 2 mM EGTA, 1% Triton X-100, 5% Glycerol, protease and phosphatase inhibitors), and protein lysates were prepared as described above. V5-tagged proteins were immunoprecipitated using 25 μl of anti-V5 agarose beads (Sigma-Aldrich). After 5 washes in IP buffer, proteins were eluted in 100 μl of sample buffer and analyzed by SDS-PAGE and immunoblotting. For endogenous immunoprecipitation studies from NRVM, cells in 10cm-dishes were treated with growth factors for 30 minutes. Some cells were pre-treated with FGFR4 blocking antibody at 10 μg/ml for 1 hour (human monoclonal, U3-11; U3Pharma). Cells were scraped in 1 ml RIPA buffer, and protein lysates were incubated with 2 μg of anti-FGFR4 (C-16; Santa Cruz) or anti-GFP (Clonetech) as negative control at 4° C. under rotation overnight. We added 50 μl of a 1:1 mix of Protein A on sepharose beads and Protein G on agarose beads that were previously equilibrated in RIPA buffer, followed by incubation at 4° C. under rotation for 2 hours, protein elution in sample buffer, and SDS-PAGE and Western blot analyses.
(In western blotting, separated proteins are transferred to a membrane and probed.)

The test system of data set [5] is isolated NRVM. The data set can be described thus: Ras/MAPK signaling (phospho-FRS2α, phospho-ERK1/2) Western blot in NRVM. The class given is cell-based, rat. The following applies: 30 minutes, FGF alone. On the procedure:
as §1, with “above. […]” for “above.”

As to `CCN(CC)CCCCNc1ncc2cc(-c3cc(OC)cc(OC)c3)c(NC(=O)NC(C)(C)C)nc2n1` [PD173074], in data set [1], the “phosphorylation of FGFR3 and FGFR4” value was “inhibits”.

B1: FGF23: recombinant mouse FGF23, 6His-tagged Tyr25-Val251 (Arg179Gln) (R&D Systems) (protein)
chain: YPDTSPLLGSNWGSLTHLYTATARTSYHLQIHRDGHVDGTPHQTIYSALMITSEDAGSVVITGAMTRRFLCMDLHGNIFGSLHFSPENCKFRQWTLENGYDVYLSQKHHYLVSLGRAKRIFQPGTNPPPFSQFLARRNEVPLLHFYTVRPRRHTQSAEDPPERDPLNVLKPRPRATPVPVSCSRELPSAEEGGPAASDPLGVLRRGRGDARGGAGGADRCRPFPRFV
modifications: left off: small tags and cut ends
As for B1, in data set [2] (adult wild type rats, single dose of 40 μg/kg), the “half-life of circulating FGF23” value amounted to 30 min. The plasma levels entry in data set [2] (rats, single dose 40 μg/kg, four hours post injection) is listed as “remained elevated above baseline”. In addition, the serum phosphate levels result in data set [3] was “significantly decreased”. Further, in data set [4], the “phosphorylated PLCγ levels” value is reported as “increased”; the “phosphorylation of FRS2γ (FGF2: FRS2γ and ERK1/2)” value was “did not induce”. For the same molecule, the phospho-PLCγ levels result in data set [4] (HEK293 overexpressing FGFR4Arg385, 30 minutes) is given as “further increased”. Moreover, in data set [4] (HEK293 overexpressing V5-tagged FGFR4), the ERK1/2 phosphorylation result is reported as “does not increase”. The “phosphorylation of PLCγ” value in data set [4] (HEK293 overexpressing ectopic β-klotho) was “induced phosphorylation”. The “FGFR isoform binding to PLCγ (co-precipitation)” value in data set [4] (HEK293 transfected with V5-tagged FGFR1-4, 30 minutes) is “only FGFR4 bound PLCγ”. Moreover, the “levels of phospho-ERK and Egr-1” value in data set [4] (HEK293 transiently expressing FLAG-tagged klotho) is “increased levels”. In data set [4] (HEK293 with ectopic α-klotho), the “activation of PLCγ” value was “did not activate”; the “phosphorylation of FRS2α and ERK1/2” value was “increased”.

B2: FGF2: recombinant mouse FGF2 (Ala11-Ser154) (R&D Systems) (protein)
chain: ALPEDGGAAFPPGHFKDPKRLYCKNGGFFLRIHPDGRVDGVREKSDPHVKLQLQAEERGVVSIKGVCANRYLAMKEDGRLLASKCVTEECFFFERLESNNYNTYRSRKYSSWYVALKRTGQYKLGSKTGPGQKAILFLPMSAKS
On to B2, for which the “levels of phosphorylated FRS2α and ERK1/2” value in data set [5] is “increased”. Also, the “FGF2-mediated FRS2α/Ras/MAPK signaling” value in data set [4] (HEK293, presence or absence of α-klotho or β-klotho) is on record as “unaffected”. Moreover, in data set [4], the “phosphorylated PLCγ levels” value is recorded as “had no effect”; the “phosphorylation of FRS2γ (FGF2: FRS2γ and ERK1/2)” value is reported as “increased”.

The values above are taken from patent US20160039936A1, “FIBROBLAST GROWTH FACTOR RECEPTOR INHIBITION FOR THE TREATMENT OF DISEASE” (UNIVERSITY OF MIAMI, priority 2011, published 2016).
